Reference: PMC6837886

Legend:
[1] = molecular target: T1, UP1 (RRM1-RRM2 fragment of hnRNP A1) (UniProt P09651 1-196); test: ITC
[2] = molecular target: T1, UP1 (RRM1-RRM2 fragment of hnRNP A1); test: NMR
[3] = molecular target: T1, UP1 (RRM1-RRM2 fragment of hnRNP A1); test: ITC; remark: listed apart in the source
[4] = molecular target: T1, UP1 (RRM1-RRM2 fragment of hnRNP A1); test: NMR; remark: listed apart in the source
[5] = molecular target: T1, UP1 (RRM1-RRM2 fragment of hnRNP A1); test: NMR; remark: listed apart in the source

T1 sequence (P09651 1-196): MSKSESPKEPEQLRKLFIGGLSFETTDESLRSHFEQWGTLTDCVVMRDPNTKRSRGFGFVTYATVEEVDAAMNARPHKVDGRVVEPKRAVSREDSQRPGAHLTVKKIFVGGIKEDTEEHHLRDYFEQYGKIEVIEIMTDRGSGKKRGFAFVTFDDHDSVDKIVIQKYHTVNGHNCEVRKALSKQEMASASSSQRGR

Binder	Kd [1] [µM]	Kd [2] [µM]	Kd [3] [µM]	Kd [4] [µM]	Kd [5] [µM]
GCACCACAGGAUCAAUAGCAGGUGUGGCACACCAGUCAUACCUUGAUCC (structured_RNA) [EV2]	5.1 ± 1.9	11.1 ± 5.1	–	–	–
GCACCACACGGGUUUUAGACAAAAUCCG (structured_RNA) [SMN2 exon 7 ESE1 hairpin]	–	–	47.4 ± 19.7	100 ± 20	–
GCACCACACGGGUUUCAGACAAAAUCCG (structured_RNA) [SMN1 exon 7 ESE1 hairpin]	–	–	51.3 ± 2.5	–	101 ± 29
GCACCACACG (ssRNA) [RNA0]	–	–	–	–	978 ± 162
